Test: soluble on expression in E. coli; label from the status in PepcDB or PDB records

Sequence	soluble on expression in E. coli
MKLKKIVFTLIALGLFSCKTTSVLVKNEPQLKTPKNVILLISDGAGLSQISSTFYFKSGTPNYTQFKNIGLIKTSSSREDVTDSASGATAFSCGIKTYNAAIGVADDSTAVKSIVEIAALNNIKTGVVATSSITDATPASFYAHALNRGLEEEIAMDMTESDLDFFAGGGLNYFTKRKDKKDVLAILKGNQFTINTTALTDFSSIASNRKMGFLLADEAMPTMEKGRGNFLSAATDLAIQFLSKDNSAFFIMSEGSQIDWGGHANNASYLISEINDFDDAIGTALAFAKKDGNTLVIVTSDHETGGFTLAAKKNKREDGSEYSDYTEIGPTFSTGGHSATLIPVFAYGPGSEEFIGIYENNEIFHKILKVTKWNQ	soluble
MLNPLRALTLGGLLLFSTLGHAAPAAPDALRIGYQKGSVSMVLAKSHQLLEQRYPQTHISWIEFPAGPQMLEALNVGSIDIGSTGDIPPIFAQAAGADLVYIGAEPPKPKAEVILVAQGSPIHNVAELKGKKVAFQKGSSSHNLLLRALQLAGLKFSDIQPVYLAPADARAAFQQGNVDAWAIWDPYYSAALLQGGARVLTDGTDLKQTGSFYLASRPYAERNGAFIEGVLDTFTQADALTHSQRAQSITLLAKTMGLPEAVIASYLDHRPPTAVTPVSAETAARQQQTADLFYENKLVPKKVDIRARIWQPTATQGAKS	not soluble
MGSDKIHHHHHHMLAIEESQKLTLSNLPSLSLFTGTDQGQFEVMKSQMLKQIGYDSADLNFAYFDMKEVVYKDVELELVSLPFFADEKIVILDYFMDITTAKKRFLTDDELKSFEEYLDNPSPTTKLIIFAEGKLDSKRRLVKLLKRDAKAFDAVEVKEQELRQYFQKWSQKQGLQFTNHSFENLLIKSGFQFSEIQKNLLFLQSYKANSVIEEEDIVNAIPKTLQDNIFDLTQFILTKKMDQARDLVRDLTLQGEDEIKLIAVMLGQFRTFTQVKILAESGQTESQIASSLGSYLGRNPNPYQIKFALRDSRGLSLSFLKQAISYLIETDYQIKTGLYEKGFLFEKALLQIASQVN	not soluble
MEAKEKKYGEIEIEKAQLEAWPNPNPERDYMIEITFPEFTCLCPRSGYPDFATIKIRYIPDKYIVELKSLKLWLNKFRNRYISHEAATNEIYQALYDLLKPRFLEVVGDFHPRGNVHTVVRVRSDENYGAAAAAALEHHHHHH	soluble
MNEKNRQLPAFTPRNRRTHPISAERKQLGVDDIVDHCMIYVDGRAIQGWFDYGSGLKRVKDFIASGHKAFMWLSLEEPSEQHMMQVADDLHIHELIVEDAVTAHQRPKVERYDDQIFMVVRSVFYRDHETVDDANEIIKTGEVQMLIGEHFIITIRHRTPMPDLTMRLDDPQEISSYGPMIIAWAWADYLVDGYLRIVNILAEEVDELEEEVFTPGSSFNIEHIYMIKREILEMRHAIDPLAPALRMLVTQHKDMIAKQLRSYLRDVLDHEMVAKDYVANFDERLSSLIDAGVAKISLQQNSDMRAIS	not soluble
RQIQKKIESGELKAAPEIVEADAECCGQHEICEKESLLAAVSKKIEYYDDEELDRFRGRPSNGYNEEEVEEFREIMYTCKEDEVAGWSRSLQLRGIELPDELKDELFLIVGERRFK	not soluble
MAHHHHHHMEWVPCTEQTGSVGCREGHCATSLQEKSTGEEWVLVVGGYCEGERDGAVMAARADGLPMLRWVRLDKPNMTWFECDGASLTHVTGDTAYFFGGLNEHMNHSNQLLCLSLHQGQQGDLSLDVVKVETTGDVPLPRARHSAGSAGRYFVVFGGETEDAEQNNDGYILDTDTMVWTRIPTGHQVPNPRLLAGPLVFYSPHGCILYGGAHFVNGDIRSMSDVWNLHIPLGGTWFNVSYGDGAPACRFPRSNGHAGGVLGRVGGETVVVFVGGKDAAEGCDRVKQVQPPKSAEDKFHLRLVDPVLAGGEGPHWRYTPAAVDTRRGVLLLGGQCRHPQEVAAFLLKQTGVTLQR	not soluble
SWQTYVDTNLVGTGAVTQAAIIGHDGNTWATSAGFAVSPANGAALANAFKDATAIRSNGFELAGTRYVTIRADDRSVYGKKGSAGVITVKTSKAILIGVYNEKIQPGTAANVVEKLADYLIGQGF	soluble
MSLGLLNCLTGAALPLMESDVTSYVSGYALGLTASLTYGNLEAQPFQGLFVYPIDEYSTVVGFEAVIADRVVTIQLRDKAKLDRSHLDIQPATVTGNFPEEESPIAPGKVTLDEDLERVLFVVNLGTIAPMENVTVFISTSSELPTLPSGAVRVLLPAICAPTVPPSCTHRFGSSSPQPQGKDPHCFGTQTKDSYNRLCLATLLDTKVTNPMEYEFKFQLEIRGPCLLAGVESPTHEIRADAAPSAHSAKSIIITLAKKHTFDRPVEILLHPSEPHMPHVLVEKGDMTLGEYDQHLKGKADFIRGTKKDNSAERKTEVIRKRLHKDIPHHSVIMLNFCPDLQSVQPNPRKAHGEFIFLIDRSNSMSKTNIQCIKEAMLVALKSLMPACFFNIIGFGSTFKAVFASSRIYNEENLTMACDCIQRMQADMGGTNMLSPLKWVLRQPLRRGHPRLLFLITDGSVNNTGKVLELVRNHASSTRCYSFGIGPTVCYRLVKGLASVSKGSAEFLMEGERLQPKMVKSLKKAMAPVLSDVTVEWVFPETTEALISPVSTSSLFPGERLMGYGIVCDASLYISNSRSEGHHHHHH	not soluble
MGSDKIHHHHHHMPNKDIDDLVRFLKDKQISTITKKYHSYLTFHGLKAANVFILKEGIIKTSVILQDGREFNISYINQPDVISLLHDEALQYDEQPFNVRIESETATFYQVNRVEFWQYVNAKSELQNYVKQYYRHRLSETFARIQRLTMNGKMGALANFLHDIAEKFGRDLPDEAGVLIDFNVTNEDIAGFCGIANQTSVSRMMRKLKLEDIIDFGMSNDGKRRIIITNMKKLDDYIAY	not soluble
MKPLLDVLMILDAIEKEGSFAAASAKLYKTPSALSYTVHKLESDLNIQLLDRSGHRAKFTRTGKMLLEKGREVLHTVRELEKQAIKLHEGWENELVIGVDDTFPFSLLAPLIEAFYQHHSVTRLKFINGVLGGSWDALTQGRADIIVGAMHEPPSSSEFGFSRLGDLEQVFAVAPHHPLAQEEEPLNRRIIKRYRAIVVGDTAQAGASTASQLLDEQEAITVFDFKTKLELQISGLGCGYLPRYLAQRFLDSGALIEKKVVAQTLFEPVWIGWNEQTAGLASGWWRDEILANSAIAGVYAKSDDGKSAIQRKIIMTSLSFSCHFPPI	not soluble
MLILGIDTSTKICTCSIFDSENGVIAETSLSVKKNHSNIVMPIIDNLFKISDLTINDIDKIAVAIGPGSFTGVRIALGIAKGLAMALNKPLIAINELDILEAIASGNENEIIPLIDARKERVYYKYQNKYVDDYLINLTSNFDKNKKYIFVGDGAINYKNILKDNLGENAIILPMYNSFPRASILCELALNKEEANIYTLEPEYISKSRAEKHFLEHHHHHH	soluble
MSLTTAHNIDLPTVLAERLTTAHPDVLRELLATFIHTLMGAEADALCGAGYGERSTERTNSRNGYRHRQFDTRAGSLDLAIPKLRHGSYFPDWLLERRKRAERALTTVVATCYLLGVSTRRMDKLVETLGITSLSKSQVSVMAKELDAAVEAFRTRPLDAGPYTFVAADALVLKVREGGRVVNVHALIAVGVNAEGHREILGIDVSTAEDGAGWLTFWRSLTARGLSGVKLVTSDAHAGLVAAIGATLPGAAWQRCRTHYTTNLMAVTPKSSWPWVRTLLHSVFDQPDAESVAAQYDRIIEALADKLPKVADHLEEARADLLAFTAFPKQIWRQIWSNNPLSVNRPSGDTVQAAAEGHHHHHH	soluble
GSRRLLEETLAPFRLNHDQLAAVQAQMRKAMAKGLRGEASSLRMLPTFVRATPDGSERGDFLALDLGGTNFRVLLVRVTTGVQITSEIYSIPETVAQGSGQQLFDHIVDCIVDFQQKQGLSGQSLPLGFTFSFPCRQLGLDQGILLNWTKGFKASDCEGQDVVSLLREAITRRQAVELNVVAIVNDTVGTMMSCGYEDPRCEIGLIVGTGTNACYMEELRNVAGVPGDSGRMCINMEWGAFGDDGSLAMLSTRFDASVDQASINPGKQRFEKMISGMYLGEIVRHILLHLTSLGVLFRGQQIQRLQTRDIFKTKFLSEIESDSLALRQVRAILEDLGLPLTSDDALMVLEVCQAVSQRAAQLCGAGVAAVVEKIRENRGLEELAVSVGVDGTLYKLHPRFSSLVAATVRELAPRCVVTFLQSEDGSGKGAALVTAVACRLAQLTR	soluble
MSATGKVSRPIQVFTRANYFFKLIFQFKVRKYNSLTVERIFIRAMCGSDDSFDDFVPDSQEPASSRTRNQDHLDDDEVPCSQRPDAANDTMVEDLDEGDEPAHDESEDIIKILVATDIHCGYGENKANIHMDAVNTFEEVLQIATEQKVDMILLGGDLFHENNPSREVQHRVTQLLRQYCLNGNPIALEFLSDASVNFNQSVFGHVNYYDQNLNVGLPIFTIHGNHDDLSGKGLTALDLLHESGLVNLFGKHSNIQEFIVSPILLRKGETRLALYGIGSQRDDRLVRAFKNNSISFLRPNAGAEDWFNLFVLHQNRPRRAMHRSTGNFLPESLIPQFFDLLIWGHEHECKPDPQYVASSEAVGDGFYILQPGSTVATSLTPEEALQKNAFLIKIKGRKFASKPIPLQTVRPMVCDELLLDKIPPGSRPILKTDRPKHTDGRYIDEIAIEAKINEMITTAKAKRRPRQPELPLIRLKVIYDGDWLNITPANAKRIGLRYENVVANAVDMVFIKKNNKPKEGKLQTENEKNITEMADEMGQVSATNLQTIINDYFINQPLVDQMTVLKPIGIGRALEQYSAIEEGGLATSANRNFDSCLMHQIDVVRKTLKKMPLPPINDPSDLDKFRDLITKDLYDMKKADSERFKNPVADVEMEEDEDDPQYYMPPQSTSRTNYASGSEDEVANSDEEMGSSISRHSKQPTTRGRGRGARGAGASRETTRGRSNKVVSTRQIDSDGFEIINDSPSPPPASRSTRGKARGKSAPSKKRDLSFF	not soluble
MPMDSYEKRGYLDREFRLFHLSACLPGDISYHYHDFDKILIFLRGDVDYVIEGRSYHLNPYDIVLVGHHSIHKPLLRSGDVYERIVVYLSPGYVDSFRTENCDLSRCFKDAREHCSDVLRISSLKISSLYESLIRLEKACREDGYAKELYCRILFLEFMIHLNRAASGSHLEYVSTSPSSEKVLEIMRYISENPSADFTIDSLASRFFLSKFHMMRLFKQETGYTINSYINEKRLLMAKELLGRNLPVTEVCFRCGFRNYAAFLRAYKKNFGENPKSGKRPEGRTSVDNLHAPRTEHRLQKKPLSK	not soluble
MSLASLIGLAVCTGNAFSPALAAEAKQPNLVIIMADDLGYGDLATYGHQIVKTPNIDRLAQEGVKFTDYYAPAPLSSPSRAGLLTGRMPFRTGIRSWIPSGKDVALGRNELTIANLLKAQGYDTAMMGKLHLNAGGDRTDQPQAQDMGFDYSLANTAGFVTDATLDNAKERPRYGMVYPTGWLRNGQPTPRADKMSGEYVSSEVVNWLDNKKDSKPFFLYVAFTEVHSPLASPKKYLDMYSQYMSAYQKQHPDLFYGDWADKPWRGVGEYYANISYLDAQVGKVLDKIKAMGEEDNTIVIFTSDNGPVTREARKVYELNLAGETDGLRGRKDNLWEGGIRVPAIIKYGKHLPQGMVSDTPVYGLDWMPTLAKMMNFKLPTDRTFDGESLVPVLEQKALKREKPLIFGIDMPFQDDPTDEWAIRDGDWKMIIDRNNKPKYLYNLKSDRYETLNLIGKKPDIEKQMYGKFLKYKTDIDNEGHHHHHH	not soluble
MENKTIQLFGNITGGPIELHSQTGSRRRRDTVENAGKSAWDTAGDVGKSVIDTVENAGAAVKNGASDLDEKLMGSG	not soluble
MSLKIFEFVPPTDKEIEEAQLKLGFKFSPEYIEFIKSGYDLGDAPIEALEISNPPSHADIFETLANARKYFQMPSEMCPICEDNSDYYCLNQKGEVVFWSHNGTTSEKWANVTVWRNQMATEVEGHHHHHH	soluble
MSLKNIEKELENLRTIFRSIGLIKFKPYFSYMGLFKDDTMFGLYKEKCLYLRKSDQYLQEIKDTIPIHFLSDHKISRQSKIFYLVPQHIIENISSYSHWITSSISEYQRLRSKIRTENQTKIRILLNMNINIERLLARVNINTVDEFKQVGETKAFVRLIQQGFEVNQLLLFKLYGALQHKYIYMLSLEEKKRLLEQADSALYDAGLRKRFTVEGHHHHHH	soluble

From the DeepSol protein solubility set
